Experimental data reported in paper PMC2904616.

Substrate: CC(C)=CCC/C(C)=C/CC/C(C)=C/CO[P@@](=O)(O)OP(=O)(O)O
Experiment: purified protein
Type: biochemical, Streptomyces avermitilis
Settings: MgCl2; labelled compound ([1-3H]FPP)

B1: SAV_76 (avermitilol synthase) (Streptomyces avermitilis MA-4680 = NBRC 14893) (protein)
chain: MPQDIDFGLPAPAGISPGLEATRRHNLGWVRRLGLVGDGPSLAWYTSWDMPRLAACGFPHARGAALDLCADAMAFFFVFDDQFDGPLGRDPARAARVCRRLTGIVHGAGPGPGADACSAAFADVWARSTDGAHPGWVARTAHEWEYYFAAQAHEAINRLRGTPGDMESYLQVRRGIAGTDLPLSLGERAAGITVPAAAFHSPQLRIMREAAIDVTLMCNDVYSLEKEEARGDMDNLVLVIEHARRCTRDEAVTAARGEVARRVIRFEQLAREVPALCAQLGLSAVERAHVDTYLGVMEAWMSGYHAWQTQTRRYTGAPHVLPSTGPGYFDEVLPT
Km: 1.06 ± 0.11 µM | kcat: 0.040 ± 0.001 s⁻¹
